Experimental findings from paper PMC8171346, “Anomalous structural dynamics of minimally frustrated residues in cardiac troponin C triggers hypertrophic cardiomyopathy†” (Chemical Science, 2021) are described below.

Experiment [1] has as its target human cardiac troponin C, wild type (human, UniProt P63316 1-161). Briefly: NMR titration; 1H-15N HSQC spectra at 37 °C of WT or C84Y cTnC in the Ca2+-bound (primed) state, without peptide and with increasing concentrations of peptide (15, 40, 70, 120, 150 and 200 μM); normalized 1H chemical shifts against peptide concentration. The note with it: both partners purified.

Experiment [2] deals with human cardiac troponin C C84Y (human, UniProt P63316 1-161, C84Y). The experiment is described as above. To be noted: both partners purified.

B1: inhibitory cardiac TnI peptide iTnI128-147 (peptide)
peptide: Ac-LTQKIFDLRGKFKRPTLRRV-NH2
notes: source: synthetic peptide (Genscript, purity higher than 95%)
B1: the Kd worked out at 59 ± 3.6 µM in experiment [1] and 66 ± 5.5 µM in experiment [2].
